Five molecules from patent US20230094597A1, “COMPOSITIONS AND METHODS FOR TREATING DISORDERS CHARACTERIZED WITH EXCESSIVE OSTEOCLAST ACTIVITY” (THE JOHNS HOPKINS UNIVERSITY, priority 2021, published 2023) can be followed below.

One experiment has as its system St3gal1. The experiment in a line: St3gal1 transcription under estrogen. Conditions: FIG. 26.
The next experiment relates to WT BMMs. Kind of experiment: In vitro osteoclast differentiation assay (TRAP staining) of BMMs. Format: cell-based, mouse.
The test system of the next experiment is Siglec15. The experiment in a line: Siglec15 expression in BMMs (flow cytometry, immunostaining). Format: cell-based, mouse. How it is done: To understand the detailed mechanism of Siglec15 regulating osteoclast formation, we incubated WT BMMs with biotinylated Siglec15 monoclonal antibody and manually separated Siglec15^+ BMMs from Siglec15- BMMs using anti-biotin microbeads and magnetic separators (FIG. 4A). Separated Siglec15* and Siglec15- BMMs were then stimulated with M-CSF and RANKL for osteoclastogenesis. […] One study reported that osteoclast fusion might be initiated by a small subset of progenitors (Levaot et al., 2015); therefore, we combined separated Siglec15^+ BMMs with BMMs isolated from Siglec15^ΔLysM mice in different proportions (1%, 5%, and 10%). […] Immunofluorescent staining confirmed that Siglec15^+ and Siglec15^− BMMs can form multinucleated osteoclasts with normal actin rings, and the expression of Siglec15 was restored in Siglec15^− BMMs during osteoclastogenesis (FIG. 8). […] BMMs cultured with RANKL alone, absent M-CSF, cannot survive during osteoclastogenesis (FIG. 4D, E).
(§1) To explore the molecular mechanism of M-CSF activation of Siglec15, we used U0126, a selective of mitogen-activated protein kinase kinases inhibitor of MEK1 and MEK2. […] To understand Siglec15 transcription, we analyzed the core enhancer of Siglec15 and found three binding sites of MYC with high species […]. Chromatin immunoprecipitation (ChIP) assay was performed to investigate the interaction of MYC with the 3 deoxyribonucleic acid binding sites. […] MYC recognizes and binds to E-box domains with consensus recognition sequence of CACGTG or CATGTG (Guccione et al., 2006). In the 310-bp binding region, we recognized the sequences of TATGTG and AATGTG that share 80% similarities with reported binding bases. To confirm the role of these MYC recognition sequences, we constructed an enhancer reporter with this Siglec15 enhancer, and 3 mutants were derived by site-directed mutagenesis to inactivate the MYC recognition (FIG. 11E). […] Thus, M-CSF activates Siglec15 expression via MEK-ERK-MYC cascade.
Mouse bone specimens were first fixed and then decalcified using 10% EDTA (Sigma-Aldrich, St. Louis, Mo., USA) for 14 days with constant shaking. For the histological assays, the detailed protocols were reported in a previous study (Dou, J. Bone Min. Res. 33, 899-908 (2018)). In short, the samples were then dehydrated and embedded in optimal cutting temperature compound (Sakura Finetek, Torrance, Calif., USA) or in paraffin. Four-μm-thick coronal-oriented femur sections were prepared for TRAP staining. Forty-μm-thick coronal-oriented femur sections were prepared for IF staining. The detailed protocols were described in a previous study study (Dou, J. Bone Min. Res. 33, 899-908 (2018)). Briefly, the sections were incubated with primary antibodies against mouse TLR2 (Santa Cruz Biotechnology, sc-21759, 1:200), Siglec15 (PA5-48221, Thermo Fisher Scientific, 1:100), ST3GAL1 (PA5-21721, Thermo Fisher Scientific, 1:50), and TRAP (Abcam, ab191406, 1:100) for 12 h at 4° C. For sialic acid detection, biotinylated Maackia Amurensis Lectin II (MAL II) (Vector Laboratories, CA, USA) was used to label the α2,3 linkage, and biotinylated Sambucus Nigra Lectin (SNA) (Vector Laboratories, CA, USA) was used to label the α2,6 linkage. Fluorescein-conjugated streptavidin (Vector Laboratories, CA, USA) was used for the addition of a fluorescent label to biotinylated sialic acid conjugates. A Zeiss LSM 780 confocal microscope and an Olympus BX51 microscope were used for image capture.
To sort Siglec15^+ cells, whole bone marrow was collected from mouse femurs and tibias after mice were euthanized with an overdose of inhaled isoflurane. Whole bone marrow cells were also used for culture and induction of BMMs using M-CSF (50 ng mL^−1) for higher Siglec15^+ cell enrichment in further studies. After red blood cell lysis, the cell number was counted, and the same numbers of cells were incubated with a biotinylated mouse Siglec15-specific antibody (PA5-48221, Thermo Fisher Scientific). […]
On the technique in general: Flow cytometry measures light scatter and fluorescence of single cells or particles in a stream.

Another experiment relates to Siglec15 core enhancer. The experiment in a line: ChIP-PCR of MYC binding at the Siglec15 core enhancer. Type of experiment: cell-based, mouse. Conditions: BMMs, stimulation for 48 h. As for the experimental part:
For the ChIP assay, primary BMMs were cultured with M-CSF or GM-CSF stimulation for 48 h to detect Siglec15 core enhancer DNA binding. M-CSF-primed cells were induced with RANKL for another 72 h to detect St3 gal1 core enhancer DNA binding. Afterward, the cells were cross-linked using 1% formaldehyde and lysed. DNA fragmentation was then achieved by enzymatic digestion with micrococcal nuclease (MNase). After digestion, 10% of the sample was preserved as the total input aliquot for further use. The remaining supernatant was then incubated with a ChIP-grade primary antibody against mouse p-CREB (Abcam, ab32096, 10 μg), c-FOS (Abcam, ab27793, 10 μg), or c-MYC (Abcam, ab9132, 10 μg). An anti-RNA Polymerase II antibody was used as the positive IP control, and normal rabbit IgG was used as the negative IP control. […] After elution, the DNA was then purified and recovered according to the manufacturer's instructions, and PCR detection was performed. The PCR primers used to detect MYC binding were as follows: Site #1, forward: [NT] ID NO: 1), and reverse: [NT] ID NO: 2); Site #2, forward: [NT] ID NO: 3), and reverse: [NT] ID NO: 4); and Site #3, forward: [NT] ID NO: 5), and reverse: [NT] ID NO: 6). The PCR primers used to detect FOS binding were as follows: forward: [NT] ID NO: 7), and reverse: [NT] ID NO: 8). The PCR primers used to detect CREB binding were as follows: forward: [NT] […]

The next experiment concerns MEK-ERK-MYC signaling. The experiment in a line: Western blot of ERK, MYC phosphorylation and Siglec15 in BMMs. Format: cell-based, mouse. As for the experimental part: as §1
(§2) For the co-IP assays, cells were first lysed in the presence of protease inhibitors using IP buffer. […] SDS-PAGE was then used to separate the immunoprecipitates before transfer to a nitrocellulose membrane for immunoblotting procedures. […]
For orientation: Immunoblotting shows a protein as a band on a membrane.

The test system of another experiment is p65. Kind of experiment: p65 nuclear translocation (immunostaining, western blot) in BMMs. Format: cell-based, mouse.
In the next experiment the test system is Siglec15-DAP12. The experiment in a line: Co-IP of Siglec15 with DAP12 and DAP12 tyrosine phosphorylation in BMMs. Format: cell-based, mouse. Conditions: BMMs induced with RANKL, sialidase or both. How it is done: To examine whether Siglec15 downstream signaling is activated by binding to sialylated TLR2, co-IP of Siglec15 with DAP12, a key factor for cell fusion, was conducted in BMMs induced with RANKL, sialidase or both. […] Moreover, tyrosine phosphorylation of DAP12 was detected in the co-IP experiment upon RANKL induction of Siglec15 clustering but was again impaired by sialidase treatment (FIG. 28d). We then tested whether TLR2 signaling is activated by binding to Siglec15. The recruitment of MyD88 to TLR2 was examined by co-IP. […] Removal of SA by sialidase reduced MyD88 recruitment and NFATc1 activation (FIG. 28e). […] Cell-cell fusion is a fundamental cellular activity of macrophages, and multinucleation is a complex process that is likely involved in multiple signaling pathways. Activation of downstream signaling by both Siglec15 and sialylated TLR2 is involved in different cells simultaneously, and both signaling pathways could also occur in each cell, which could be the critical mechanism for cell fusion.
as §2

Experiment [1] concerns TLR2. The experiment in a line: Immunostaining of α2,3 and α2,6 sialic acid in WT BMMs. Type of experiment: cell-based, mouse. How it is done: Because TLR2 has 4 N-linked glycosylation sites (Weber et al., 2004), to investigate the molecular mechanism of sialylation we tested α2,3 and α2,6 N-Linked SA modification, the two most common sialylation pattern in mammalian cells. […] To understand why α2,3 was sialylated, we examined each member expression profile of the entire sialyltransferase family. […] Moreover, α2,3 SA was immunocolocalized with TLR2, not with Siglec15 in WT and Siglec15^ΔLysM BMMs after RANKL stimulation for 24 h (FIGS. 16C, D).
Mouse bone specimens were first fixed and then decalcified using 10% EDTA (Sigma-Aldrich, St. Louis, Mo., USA) for 14 days with constant shaking. For the histological assays, the detailed protocols were reported in a previous study (Dou, J. Bone Min. Res. 33, 899-908 (2018)). In short, the samples were then dehydrated and embedded in optimal cutting temperature compound (Sakura Finetek, Torrance, Calif., USA) or in paraffin. Four-μm-thick coronal-oriented femur sections were prepared for TRAP staining. Forty-μm-thick coronal-oriented femur sections were prepared for IF staining. The detailed protocols were described in a previous study study (Dou, J. Bone Min. Res. 33, 899-908 (2018)). […]

For experiment [2], the system named is TLR2. Kind of experiment: ELISA of peptidoglycan-induced cytokine secretion from BMMs. Format: cell-based, mouse. Conditions: RANKL, or RANKL plus sialidase. An excerpt:
To test signaling activity of α2,3 sialylation, we removed α2,3 SA of TLR2 induced by RANKL by adding sialidase in the BMM culture. […] To examine the transcriptional mechanism of ST3Gal1 activation by RANKL, we analyzed 5′ promoter sequence of ST3Gal1 and recognized binding sites for CREB1 and FOS (downstream transcription factors of RANKL signaling) in the core enhancer (FIG. 16E). […] To confirm the functional activity of the FOS site, we constructed an enhancer reporter with ST3Gal1 enhancer and FOS mutant binding sites. […] To validate RANKL-induced sialylation in vivo, we crossed RANKL^ﬂ/ﬂ mice with the Dmp1-Cre strain to generate osteocyte-specific RANKL knockout mice (RANKLΔ^Dmp1). […] Furthermore, the Siglec15-TLR2 co-localization that can be observed in RANKL^ﬂ/ﬂ mice disappeared in RANKL^ΔDmp1 mice (FIG. 19B).

As to estrogen, the “RANKL-activated St3gal1 transcription” value with St3gal1 is recorded as “inhibits”.
Consider “GM-CSF: granulocyte-macrophage CSF, encoded by CSF2”, for which the osteoclastogenesis result with WT BMMs (BMMs induced with RANKL+GM-CSF) is “cannot induce”. For the same molecule, the “expression of Siglec15” value with Siglec15 (BMMs treated with GM-CSF, immunostaining) is recorded as “cannot induce”. For the same molecule, in the experiment with Siglec15 core enhancer, the “binding of MYC with the core enhancer of Siglec15” value is recorded as “cannot induce”.
As for `N#CC(=C(/N)Sc1ccccc1N)/C(C#N)=C(\N)Sc1ccccc1N` [U0126, reference compound], the M-CSF-ERK-MYC-Siglec15 cascade result with MEK-ERK-MYC signaling (M-CSF+U0126, 0-72 h) is on record as “blocked this cascade”. Further, in the experiment with WT BMMs (WT BMMs, U0126 10 μmol·L^-1), the cell survival rate result was “decreases” and the osteoclastogenesis result is given as “decreases”. In addition, the “Siglec15 upregulated by M-CSF” value in the experiment on Siglec15 (BMMs, M-CSF+U0126, immunostaining) is listed as “abrogated”.

B1: M-CSF: macrophage colony stimulating factor (protein, UniProt P09603 33-554, looked up)
Macrophage colony-stimulating …: EEVSEYCSHMIGSGHLQSLQRLIDSQMETSCQITFEFVDQEQLKDPVCYLKKAFLLVQDIMEDTMRFRDNTPNAIAIVQLQELSLRLKSCFTKDYEEHDKACVRTFYETPLQLLEKVKNVFNETKNLLDKDWNIFSKNCNNSFAECSSQDVVTKPDCNCLYPKAIPSSDPASVSPHQPLAPSMAPVAGLTWEDSEGTEGSSLLPGEQPLHTVDPGSAKQRPPRSTCQSFEPPETPVVKDSTIGGSPQPRPSVGAFNPGMEDILDSAMGTNWVPEEASGEASEIPVPQGTELSPSRPGGGSMQTEPARPSNFLSASSPLPASAKGQQPADVTGTALPRVGPVRPTGQDWNHTPQKTDHPSALLRDPPEPGSPRISSLRPQGLSNPSTLSAQPQLSRSHSSGSVLPLGELEGRRSTRDRRSPAEPEGGPASEGAARPLPRFNSVPLTDTGHERQSEGSFSPQLQESVFHLLVPSVILVLLAVGGLLFYRWRRRSHQEPQRADSPLEQPEGSPLTQDDRQVELPV
Regarding B1, the “MYC phosphorylation via ERK activation” value with MEK-ERK-MYC signaling (western blot) was “phosphorylated the Ser62 of MYC”. Besides, the “Siglec15 expression in separated Siglec15- BMMs” value in the experiment on Siglec15 (FCM, after 3 days of stimulation) is on record as “restored Siglec15 expression”. For the same molecule, the “proportion of Siglec15+ BMMs” value is reported as “no obvious changes” with Siglec15 (flow cytometry, Siglec15 ΔLysM mice, M-CSF 3 days); “significantly increased” in the experiment on Siglec15 (flow cytometry, whole bone-marrow cells of Siglec15 fl/fl mice, M-CSF 3 days); “significantly increased” with Siglec15 (immunofluorescent staining, Siglec15 fl/fl mice).

B2: RANKL: receptor activator of NF-κappaB ligand (protein, UniProt O14788 140-317, looked up)
Tumor necrosis factor ligand …: IRAEKAMVDGSWLDLAKRSKLEAQPFAHLTINATDIPSGSHKVSLSSWYHDRGWAKISNMTFSNGKLIVNQDGFYYLYANICFRHHETSGDLATEYLQLMVYVTKTSIKIPSSHTLMKGGSTKYWSGNSEFHFYSINVGGFFKLRSGEEISIEVSNPSLLDPDQDATYFGAFKVRDID
With B2, in the experiment with p65, the p65 nuclear translocation entry was “activated”. For the same molecule, in the experiment on Siglec15-DAP12, the “association of Siglec15 with DAP12” value is given as “induced the association of Siglec15 with DAP12”. Besides, the “α2,3 sialylation of TLR2” value with TLR2 [1] is recorded as “robustly induced”. Also, in the experiment on TLR2 [2], the “peptidoglycan-induced secretion of IL-6” value is reported as “inhibited” and the “peptidoglycan-induced secretion of TNF-α” value was “inhibited”.
